{
  "source": "patent US20040210040A1",
  "about": "(PDL BIOPHARMA, published 2004)",
  "binders": {"B1": {"name": "HuPAR34 (humanized PAR34, IgG1/kappa) (antibody, V domains shown)", "VH": "EVQLVQSGAEVKKPGASVKISCKVSGYAFTNYNMYWVRQAPGKGLEWIGYIDPYYGDPGYSQKFKGKATLTVDKSTSTAYMELSSLRSEDTAVYYCARRGNFPYYFDYWGQGTLVTVSS", "VL": "DIQMTQSPSSLSASVGDRVTITCKASQDINSYLSWFQQKPGKAPKTLIYRANRLVDGVPSRFSGSGSGQDYTLTISSLQPEDFATYYCLQYDEFPYTFGGGTKVEIK"}, "B2": {"name": "PAR34 (murine anti-amphiregulin monoclonal antibody) (antibody, mouse IgG2b, V domains shown)", "VH": "EIQLQQSGPELVKPGASVKVSCKASGYAFTNYNMYWVKQSHGKSLEWIGYIDPYYGDPGYSQKFKGKATLTVDKSSSTAYMHLNSLTSEDSAVYYCARRGNFPYYFDYWGQGTTLTVSS", "VL": "DIKMTQSPSSMYASLGERVTITCKASQDINSYLSWFQQKPGKSPKTLIYRANRLVDGVPSRFSGSGSGQDYSLTISSLEYEDMGIYYCLQYDEFPYTFGGGTKLEIK"}},
  "key": {"[1]": {"target": "T1, recombinant soluble human amphiregulin (human, UniProt P15514 101-198, limits assumed)", "T1 construct": "also called AR; human AR", "T1 sequence": "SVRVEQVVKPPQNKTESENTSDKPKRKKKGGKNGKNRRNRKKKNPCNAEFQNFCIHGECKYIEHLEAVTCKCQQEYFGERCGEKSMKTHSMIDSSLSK", "assay": "SPR (BIAcore 3000)", "experimental": "(§1) Affinities between human amphiregulin (AR) and PAR34 or HuPAR34 were analyzed using BIAcore 3000 (BLAcore, Sweden).\n(§2) The BIAcore analysis may be conducted according to the following protocol. PAR34 or HuPAR34 is immobilized on the Pioneer F1 chip using standard amine coupling kit (BIAcore). Surface plasmon resonance is measured at a flow rate of 50 μl/min at 24° C. Injection of AR (association phase) occurs over 180 seconds. Dissociation is subsequently monitored over 3 hours. Kinetics of binding (ka and kd) are calculated from data acquired at five different concentrations of analyte (320 nM, 160 nM, 80 nM, 40 nM, 20 nM), using the BIAevaluation program. Double-referencing is applied to eliminate responses from reference surface and buffer only control. The binding affinity, KD, is obtained by simultaneously fitting the association and dissociation phases of the sensorgram from the analyte concentration series."}, "[2]": {"target": "T1, recombinant soluble human amphiregulin", "assay": "cell-based or functional assay"}, "[3]": {"target": "T1, recombinant soluble human amphiregulin", "assay": "competition ELISA against biotinylated PAR34, Exp. A", "experimental": "(§3) The affinity of HuPAR34 to human amphiregulin was analyzed by competition ELISA. MaxiSorp ELISA plates (Nalge Nunc International) were coated overnight at 4° C. with 100 μl/well of 0.5 μg/ml recombinant soluble human amphiregulin in 0.2 M sodium carbonate-bicarbonate buffer, pH 9.4, washed with Wash Buffer (PBS containing 0.1% Tween 20), and blocked for 15 min at room temperature with 200 μl/well of SuperBlock Blocking Buffer in TBS (Pierce Chemical Company). After washing with Wash Buffer, a mixture of biotinylated PAR34 (0.125 μg/ml final concentration) and competitor antibody (PAR34 or HuPAR34 starting at 75 μg/ml final concentration and serially diluted 3-fold) in 100 μl/well of ELISA buffer was added in triplicate. As a control, 100 μl/well of 75 μg/ml of humanized anti-CD33 IgG1/κ monoclonal antibody HuM195 (Co, M. S. et al., J. Immunol., 148: 1149-1154 (1992)) in ELISA buffer was used. As a no-competitor control, 100 μl/well of ELISA Buffer was used. After incubating the plates for 1 hr and washing with Wash Buffer, bound antibodies were detected using 100 μl/well of 1 μg/ml HRP-conjugated streptavidin (Pierce Chemical Company) in ELISA buffer. After incubating for 0.5 hr at room temperature and washing with Wash Buffer, color development was performed by adding 100 μl/well of ABTS substrate (KPL, Inc.). […] Absorbance was read at 415 nm. […]"}, "[4]": {"target": "T1, recombinant soluble human amphiregulin", "assay": "competition ELISA against biotinylated PAR34, Exp. B", "experimental": "as §3"}, "[5]": {"target": "T1, recombinant soluble human amphiregulin", "assay": "competition ELISA against biotinylated PAR34, Exp. C", "experimental": "as §3"}, "[6]": {"target": "T1, recombinant soluble human amphiregulin", "assay": "competition ELISA against biotinylated PAR34, Exp. D", "experimental": "as §3"}, "[7]": {"target": "T1, recombinant soluble human amphiregulin", "assay": "SPR (BIAcore 3000), antibody immobilized, AR as analyte", "experimental": "as §1, §2"}, "[8]": {"target": "T1, recombinant soluble human amphiregulin", "assay": "competition ELISA against biotinylated PAR34, average of Exp. A-D", "experimental": "as §3"}, "[9]": {"target": "T1, recombinant soluble human amphiregulin", "assay": "competition ELISA on coated recombinant soluble human amphiregulin, competitor against biotinylated PAR34, Exp. A", "experimental": "as §3"}, "[10]": {"target": "T1, recombinant soluble human amphiregulin", "assay": "competition ELISA on coated recombinant soluble human amphiregulin, competitor against biotinylated PAR34, Exp. B", "experimental": "as §3"}, "[11]": {"target": "T1, recombinant soluble human amphiregulin", "assay": "competition ELISA on coated recombinant soluble human amphiregulin, competitor against biotinylated PAR34, Exp. C", "experimental": "as §3"}, "[12]": {"target": "T1, recombinant soluble human amphiregulin", "assay": "competition ELISA on coated recombinant soluble human amphiregulin, competitor against biotinylated PAR34, Exp. D", "experimental": "as §3"}, "[13]": {"target": "T1, recombinant soluble human amphiregulin", "assay": "competition ELISA on plate-coated recombinant soluble human amphiregulin; competes with biotinylated PAR34", "experimental": "as §3"}, "[14]": {"target": "T1, recombinant soluble human amphiregulin", "assay": "competition ELISA on coated recombinant soluble human amphiregulin, competitor against biotinylated PAR34, average of Exp. A-D", "experimental": "as §3"}},
  "data": [
    {"binder": "B1", "values": [
      {"measurement": "fold difference of affinity, HuPAR34 against PAR34", "setting": "[1]", "value": "≤ 2", "unit": "fold"},
      {"measurement": "IC50 of inhibition of AR-mediated proliferation in 3T3 cells", "setting": "[2]", "value": 0.055, "unit": "µg/mL"},
      {"measurement": "fold difference of IC50, HuPAR34 against PAR34", "setting": "[3]", "value": 2.4, "unit": "fold"},
      {"measurement": "fold difference of IC50, HuPAR34 against PAR34", "setting": "[4]", "value": 1.4, "unit": "fold"},
      {"measurement": "fold difference of IC50, HuPAR34 against PAR34", "setting": "[5]", "value": 1.4, "unit": "fold"},
      {"measurement": "fold difference of IC50, HuPAR34 against PAR34", "setting": "[6]", "value": 2, "unit": "fold"},
      {"measurement": "Kd", "setting": "[7]", "value": 0.53, "unit": "nM"},
      {"measurement": "koff", "setting": "[7]", "value": 0.00823, "unit": "s⁻¹"},
      {"measurement": "kon", "setting": "[7]", "value": "1.26e+07", "unit": "M⁻¹ s⁻¹"},
      {"measurement": "fold difference of IC50, HuPAR34 against PAR34", "setting": "[8]", "value": 1.8, "unit": "fold"},
      {"measurement": "IC50", "setting": "[9]", "value": 1.95, "unit": "µg/mL"},
      {"measurement": "IC50", "setting": "[10]", "value": 1.11, "unit": "µg/mL"},
      {"measurement": "IC50", "setting": "[11]", "value": 1.76, "unit": "µg/mL"},
      {"measurement": "IC50", "setting": "[12]", "value": 2.76, "unit": "µg/mL"},
      {"measurement": "IC50 (read off the curve)", "setting": "[13]", "value": "~2", "unit": "µg/mL"},
      {"measurement": "IC50", "setting": "[14]", "value": 1.9, "unit": "µg/mL"}
    ]},
    {"binder": "B2", "values": [
      {"measurement": "IC50 of inhibition of AR-mediated proliferation in 3T3 cells", "setting": "[2]", "value": 0.025, "unit": "µg/mL"},
      {"measurement": "Kd", "setting": "[7]", "value": 0.41, "unit": "nM"},
      {"measurement": "koff", "setting": "[7]", "value": 0.024, "unit": "s⁻¹"},
      {"measurement": "kon", "setting": "[7]", "value": "4.8e+07", "unit": "M⁻¹ s⁻¹"},
      {"measurement": "IC50", "setting": "[9]", "value": 0.82, "unit": "µg/mL"},
      {"measurement": "IC50", "setting": "[10]", "value": 0.78, "unit": "µg/mL"},
      {"measurement": "IC50", "setting": "[11]", "value": 1.3, "unit": "µg/mL"},
      {"measurement": "IC50", "setting": "[12]", "value": 1.39, "unit": "µg/mL"},
      {"measurement": "IC50 (read off the curve)", "setting": "[13]", "value": "~1", "unit": "µg/mL"},
      {"measurement": "IC50", "setting": "[14]", "value": 1.07, "unit": "µg/mL"}
    ]}
  ]
}
